Reference: patent US20070060522A1

Key:
Assay in all cases: cell-based or functional assay
[1] = biological target: αMβ2 (Mac-1; CD11b/CD18) on human peripheral blood monocytes (human) (UniProt P11215)
[2] = biological target: CD54 (ICAM-1) on A375 human melanoma cells (human) (UniProt P05362)
[3] = biological target: αLβ2 (LFA-1; CD11a/CD18) on human peripheral blood leukocytes (human) (UniProt P20701)

Sequence of CD54 (ICAM-1) on A375 human melanoma cells (human) (P05362 28-532): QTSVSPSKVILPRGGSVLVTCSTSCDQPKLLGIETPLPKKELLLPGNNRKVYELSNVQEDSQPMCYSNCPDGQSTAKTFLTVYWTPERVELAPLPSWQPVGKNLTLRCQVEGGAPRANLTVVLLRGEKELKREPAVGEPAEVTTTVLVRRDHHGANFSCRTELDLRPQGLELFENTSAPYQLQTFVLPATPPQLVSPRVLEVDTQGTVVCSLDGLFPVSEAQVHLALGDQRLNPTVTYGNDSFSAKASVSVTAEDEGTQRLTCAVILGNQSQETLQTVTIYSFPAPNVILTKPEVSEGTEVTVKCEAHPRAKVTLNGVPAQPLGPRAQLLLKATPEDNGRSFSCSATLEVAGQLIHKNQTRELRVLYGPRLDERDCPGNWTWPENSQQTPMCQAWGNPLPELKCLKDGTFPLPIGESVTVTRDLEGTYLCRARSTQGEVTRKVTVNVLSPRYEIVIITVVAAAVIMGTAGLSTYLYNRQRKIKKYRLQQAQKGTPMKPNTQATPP

With “blocking monoclonal anti-αMβ2 antibody (clone ICRF44)” the inhibition of monocyte adherence to sFn pretreated tumor cells [1] was 80% and the inhibition of monocyte adherence to untreated A375 cells [1] was 22.5%.

“murine anti-human monoclonal blocking antibody against CD54 (clone 84H10)” gave an inhibition of adherence of sFn pretreated monocytes to A375 cells [2] of 86% and an inhibition of adherence of untreated monocytes to A375 cells [2] of 53%.

In the case of “murine anti-human monoclonal blocking antibody against αLβ2 (clone 25.3)”, the inhibition of monocyte adherence to sFn pre-treated A375 cells [3] is reported as 23% and the inhibition of monocyte adherence to untreated A375 cells [3] is reported as 80%.

“soluble fibrin (sFn) (from UniProt P02671 36-629; P02675 45-491; P02679 27-453) (ligand)” was tested, and the adherence of sFn treated monocytes to untreated A375 cells, static microplate assay (untreated control 32.9+1.3%) [1] was 38.8%, the monocyte adherence to sFn pre-treated A375 cells, static microplate assay (untreated control 32.9+1.3%) [1] was 68.5% and the monocyte adherence when monocytes and A375 cells were both pre-treated with sFn, static microplate assay (untreated control 32.9+1.3%) [2] was 15.9%.
